The record followed here is patent US20070098718A1 (Novartis, published 2007).

For this test, the target named is T1, Recombinant soluble CD40-his (human, UniProt P25942 21-193, limits assumed).
T1 construct: not shown: his tag
Briefly: binding affinity to human CD40 (Biacore per paragraph 64). On the technique in general: Surface plasmon resonance follows binding to a sensor surface in real time, without labels.

The Kd is a measure of binding affinity in units of concentration.

T1 sequence (P25942 21-193 limits assumed): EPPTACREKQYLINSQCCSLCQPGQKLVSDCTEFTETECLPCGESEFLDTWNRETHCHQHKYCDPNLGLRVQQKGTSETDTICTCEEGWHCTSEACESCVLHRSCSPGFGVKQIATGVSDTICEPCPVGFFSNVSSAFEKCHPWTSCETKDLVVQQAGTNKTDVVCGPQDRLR

B1: monoclonal antibody CHIR-12.12 (antibody, human IgG1, kappa, V domains shown)
VH: QVQLVESGGGVVQPGRSLRLSCAASGFTFSSYGMHWVRQAPGKGLEWVAVISYEESNRYHADSVKGRFTISRDNSKITLYLQMNSLRTEDTAVYYCARDGGIAAPGPDYWGQGTLVTVSS
VL: DIVMTQSPLSLTVTPGEPASISCRSSQSLLYSNGYNYLDWYLQKPGQSPQVLISLGSNRASGVPDRFSGSGSGTDFTLKISRVEAEDVGVYYCMQARQTPFTFGPGTKVDIRR
notes: Fully human IgG1 kappa anti-human CD40 mAb; also called antibody of hybridoma 153.8E2.D10.D6.12.12
For B1, the Kd worked out at 0.5 nM.

B2: monoclonal antibody CHIR-5.9 (antibody, human IgG1, kappa, V domains shown)
VH: EVQLVQSGAEVKKPGESLKISCKGSGYSFTSYWIGWVRQMPGKGLEWMGIIYPGDSDTRYSPSFQGQVTISADKSISTAYLQWSSLKASDTAMYYCARGTAAGRDYYYYYGMDVWGQGTTVTVSS
VL: AIVMTQPPLSSPVTLGQPASISCRSSQSLVHSDGNTYLNWLQQRPGQPPRLLIYKFFRRLSGVPDRFSGSGAGTDFTLKISRVEAEDVGVYYCMQVTQFPHTFGQGTRLEIKR
notes: Fully human IgG1 kappa anti-human CD40 mAb; also called mAb CHIR-5.9; antibody of hybridoma 131.2F8.5.9
Take B2: the Kd was 12 nM.
